Measurements taken from PMC7948593, “Dynamic multimerization of Dab2–Myosin VI complexes regulates cargo processivity while minimizing cortical actin reorganization” (The Journal of Biological Chemistry, 2021).
Ends that are not written are not given here.

B2: Cy3-labeled full-length myosin VI (natural protein, human, UniProt Q9UM54 1-1294, looked up)
chain: MEDGKPVWAPHPTDGFQMGNIVDIGPDSLTIEPLNQKGKTFLALINQVFPAEEDSKKDVEDNCSLMYLNEATLLHNIKVRYSKDRIYTYVANILIAVNPYFDIPKIYSSEAIKSYQGKSLGTRPPHVFAIADKAFRDMKVLKMSQSIIVSGESGAGKTENTKFVLRYLTESYGTGQDIDDRIVEANPLLEAFGNAKTVRNNNSSRFGKFVEIHFNEKSSVVGGFVSHYLLEKSRICVQGKEERNYHIFYRLCAGASEDIREKLHLSSPDNFRYLNRGCTRYFANKETDKQILQNRKSPEYLKAGSMKDPLLDDHGDFIRMCTAMKKIGLDDEEKLDLFRVVAGVLHLGNIDFEEAGSTSGGCNLKNKSAQSLEYCAELLGLDQDDLRVSLTTRVMLTTAGGTKGTVIKVPLKVEQANNARDALAKTVYSHLFDHVVNRVNQCFPFETSSYFIGVLDIAGFEYFEHNSFEQFCINYCNEKLQQFFNERILKEEQELYQKEGLGVNEVHYVDNQDCIDLIEAKLVGILDILDEENRLPQPSDQHFTSAVHQKHKDHFRLTIPRKSKLAVHRNIRDDEGFIIRHFAGAVCYETTQFVEKNNDALHMSLESLICESRDKFIRELFESSTNNNKDTKQKAGKLSFISVGNKFKTQLNLLLDKLRSTGASFIRCIKPNLKMTSHHFEGAQILSQLQCSGMVSVLDLMQGGYPSRASFHELYNMYKKYMPDKLARLDPRLFCKALFKALGLNENDYKFGLTKVFFRPGKFAEFDQIMKSDPDHLAELVKRVNHWLTCSRWKKVQWCSLSVIKLKNKIKYRAEACIKMQKTIRMWLCKRRHKPRIDGLVKVGTLKKRLDKFNEVVSVLKDGKPEMNKQIKNLEISIDTLMAKIKSTMMTQEQIQKEYDALVKSSEELLSALQKKKQQEEEAERLRRIQEEMEKERKRREEDEKRRRKEEEERRMKLEMEAKRKQEEEERKKREDDEKRIQAEVEAQLARQKEEESQQQAVLEQERRDRELALRIAQSEAELISDEAQADLALRRSLDSYPVSKNDGTRPKMTPEQMAKEMSEFLSRGPAVLATKAAAGTKKYDLSKWKYAELRDTINTSCDIELLAACREEFHRRLKVYHAWKSKNKKRNTETEQRAPKSVTDYDFAPFLNNSPQQNPAAQIPARQREIEMNRQQRFFRIPFIRPADQYKDPQSKKKGWWYAHFDGPWIARQMELHPDKPPILLVAGKDDMEMCELNLEETGLTRKRGAEILPRQFEEIWERCGGIQYLQNAIESRQARPTYATAMLQSLLK
modifications: Cy3 label
notes: Myosin VI, human, the isoform containing both the long insert (LI) and short insert (SI); probably Myosin VI FL-SNAP (C-terminal SNAP, FLAG and 6X-His tags); Assay buffers held 10 uM calmodulin; The surface gliding assays used dark myosin VI FL-FLAG; also called Cy3-myosin VI; myosin VI FL
B3: Dab2 myosin interacting region (MIR) with C-terminal eGFP (domain or fragment, human, UniProt P98082 675-713, looked up)
chain: SSGTLSAFASYFNSKVGIPQENADHDDFDANQLLNKINE
notes: Dab2, human, a.a; fluorophore joined through a flexible (Gly-Ser-Gly) x 2 repeat; Held on DNA nanotubes or surfaces through a GFP nanobody (a tool); also called Dab2-MIR-GFP; GFP-tagged Dab2 MIR; not shown: eGFP, C-terminal, kept

Tests used:
myosin VI CBD = myosin VI CBD (UniProt Q64331); conditions: cited from earlier work
[1] = molecular target: T1, Myosin VI cargo-binding domain (CBD) with C-terminal mCerulean (human, UniProt Q9UM54 991-1294, C-terminal mCerulean omitted. Limits are those printed for the Kd FRET assay (CBD 991-1294, LI+SI isoform of 1294 aa); the construct list instead gives 1030-1284.); assay: FRET or BRET; bimolecular FRET titration in solution; CBD-mCer held constant at 30 nM, increasing DAB2-MIR-mCit titrated in; excitation 430 nm, cross-excitation spectra subtracted; conditions: both partners purified
T1 chain: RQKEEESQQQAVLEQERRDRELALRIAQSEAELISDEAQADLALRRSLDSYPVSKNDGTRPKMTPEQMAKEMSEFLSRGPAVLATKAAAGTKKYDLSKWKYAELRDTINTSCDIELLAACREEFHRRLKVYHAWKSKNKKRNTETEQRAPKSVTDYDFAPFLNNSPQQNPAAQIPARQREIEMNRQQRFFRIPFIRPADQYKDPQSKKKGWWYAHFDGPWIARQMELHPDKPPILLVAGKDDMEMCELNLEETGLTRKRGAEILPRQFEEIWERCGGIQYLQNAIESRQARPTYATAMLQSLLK

[2] = molecular target: B3; assay: single-molecule TIRF binding assay; adaptor-GFP held through GFP nanobody-SNAP on DNA nanotubes; Cy3-labeled myosin VI at 50 pM in AB.BSA.Cam; 20 Hz for 3 min; bound and rebinding times fitted to a single-exponential decay; conditions: both partners purified
[3] = molecular target: B2; assay: as above; conditions: both partners purified

Sequence of myosin VI CBD (Q64331 1137-1262): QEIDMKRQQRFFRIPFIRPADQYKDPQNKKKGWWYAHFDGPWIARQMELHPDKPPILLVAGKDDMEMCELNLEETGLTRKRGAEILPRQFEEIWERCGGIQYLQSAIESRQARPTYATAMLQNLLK

## Dab2 MIR (from UniProt P98082)
Myosin VI CBD
  Kd: 500 nM

B1: Dab2 myosin interacting region (MIR) with C-terminal mCitrine (domain or fragment, human, UniProt P98082 675-713, looked up)
chain: SSGTLSAFASYFNSKVGIPQENADHDDFDANQLLNKINE-mCitrine
notes: Dab2, human, a.a; fluorophore joined through a flexible (Gly-Ser-Gly) x 2 repeat; Cloned into pBiex1; also called DAB2-MIR-mCit; mCit-MIR; not shown: mCitrine, C-terminal, kept
[1]
  Kd: ~184 nM

## B2
[2]
  half-life of the interaction: ~1.2 s

## B3
[3]
  koff: 0.91 s⁻¹
